The supplement of paper PMC9233669
This sample holds only a part of the variants without activity.

Columns and labels:
biotinyl-Ile-oxazolone = assay: self-aminoacylation, catalytic enhancement (BIO) (fold over background); higher = more active; k-Seq, kA / k0A0; sequences stand for … in GGGAAUGGAUCCACAUCUACGAAUUC…UUCACUGCAGACUUGACGAAGCUG
In short: (§1)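 The uncatalyzed rate is the low-activity peak of a bimodal Gaussian fit, and catalytic enhancement is median kA divided by it. The kA values came from pseudo-first-order fits, with 1000 bootstraps, of per-sequence fraction reacted measured by streptavidin capture, triplicate qPCR and Illumina sequencing. Mutagenized RNA pools with a 21-nt variable region (0.43 μM) were reacted with each biotinyl-aminoacyl-oxazolone at 2–1250 μM in 50 μL HEPES/NaCl/KCl/MgCl2/CaCl2 buffer with 5% acetonitrile, pH 6.9–7.0, for 90 minutes at room temperature.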

biotinyl-Trp-oxazolone = assay: self-aminoacylation, catalytic enhancement (BWO) (fold over background); higher = more active; k-Seq, kA / k0A0; sequences stand for … in GGGAAUGGAUCCACAUCUACGAAUUC…UUCACUGCAGACUUGACGAAGCUG
In short: as §1

biotinyl-Phe-oxazolone = assay: self-aminoacylation, catalytic enhancement (BFO) (fold over background); higher = more active; k-Seq, kA / k0A0; sequences stand for … in GGGAAUGGAUCCACAUCUACGAAUUC…UUCACUGCAGACUUGACGAAGCUG
In short: as §1

biotinyl-Leu-oxazolone = assay: self-aminoacylation, catalytic enhancement (BLO) (fold over background); higher = more active; k-Seq, kA / k0A0; sequences stand for … in GGGAAUGGAUCCACAUCUACGAAUUC…UUCACUGCAGACUUGACGAAGCUG
In short: as §1

biotinyl-Met-oxazolone = assay: self-aminoacylation, catalytic enhancement (BMO) (fold over background); higher = more active; k-Seq, kA / k0A0; sequences stand for … in GGGAAUGGAUCCACAUCUACGAAUUC…UUCACUGCAGACUUGACGAAGCUG
In short: as §1

biotinyl-Val-oxazolone = assay: self-aminoacylation, catalytic enhancement (BVO) (fold over background); higher = more active; k-Seq, kA / k0A0; sequences stand for … in GGGAAUGGAUCCACAUCUACGAAUUC…UUCACUGCAGACUUGACGAAGCUG
In short: as §1

Sequence | self-aminoacylation (biotinyl-Ile-oxazolone) | self-aminoacylation (biotinyl-Trp-oxazolone) | self-aminoacylation (biotinyl-Phe-oxazolone) | self-aminoacylation (biotinyl-Leu-oxazolone) | self-aminoacylation (biotinyl-Met-oxazolone) | self-aminoacylation (biotinyl-Val-oxazolone)
CCACACUUCCAGCAACCGGUC [Fam1B.1 aminoacylation ribozyme variant] | 1.15 | 1.14 | 0.744 | 0.925 | 0.879 | 1.34
CCACACUUCCAGCAAUCGCUC [Fam1B.1 aminoacylation ribozyme variant] | 1.69 | 1.59 | 1.22 | 1.35 | 1.54 | 1.83
CCACACUUCCAGCAAUGGGUC [Fam1B.1 aminoacylation ribozyme variant] | 1.34 | 0.884 | 1.22 | 0.88 | 0.956 | 1.38
CCACACUUCGAGCAAUCGGUA [Fam1B.1 aminoacylation ribozyme variant] | 0.715 | 1 | 0.573 | 0.849 | 0.716 | 1.06
CCACACUUCGAGCAAUCGGUG [Fam1B.1 aminoacylation ribozyme variant] | 1.62 | 2.07 | 15.2 | 3.3 | 2.48 | 1.91
CCACACUUCGAGCAAUUGGUC [Fam1B.1 aminoacylation ribozyme variant] | 0.79 | 0.375 | 0.518 | 0.747 | 0.721 | 0.956
CCACACUUCUAGCAAUCGGUG [Fam1B.1 aminoacylation ribozyme variant] | 2.65 | 3.09 | 19.8 | 4.64 | 3.47 | 2.62
CCACACUUCUAGCAAUCGGUU [Fam1B.1 aminoacylation ribozyme variant] | 1.34 | 1.12 | 1.17 | 1.13 | 0.978 | 1.36
CCACACUUCUAGCCAUCGGUC [Fam1B.1 aminoacylation ribozyme variant] | 0.924 | 0.962 | 1.09 | 0.778 | 0.683 | 1.01
CCACACUUGAAGCAAUCCGUC [Fam1B.1 aminoacylation ribozyme variant] | 1.02 | 0.76 | 0.745 | 0.905 | 0.993 | 1
CCACACUUGAAGCAAUCGGUA [Fam1B.1 aminoacylation ribozyme variant] | 1.07 | 0.948 | 0.696 | 1.13 | 0.976 | 1.25
CCACACUUGAAGCAAUCGGUC [Fam1B.1 aminoacylation ribozyme variant] | 0.836 | 0.805 | 0.778 | 0.735 | 0.782 | 0.926
CCACACUUGAAGCCAUCGGUC [Fam1B.1 aminoacylation ribozyme variant] | 1.24 | 1.6 | 0.99 | 0.811 | 1.24 | 1.47
CCACACUUGAGGCAAUCGGUC [Fam1B.1 aminoacylation ribozyme variant] | 1.63 | 1.86 | 1.28 | 1.6 | 1.48 | 1.81
CCACACUUUAAGCAACCGGUC [Fam1B.1 aminoacylation ribozyme variant] | 0.795 | 0.72 | 0.959 | 0.844 | 0.613 | 0.884
CCACACUUUAAGCAAUCGGCC [Fam1B.1 aminoacylation ribozyme variant] | 1.52 | 1.85 | 1.64 | 1.22 | 1.58 | 1.74
CCACACUUUGAGCAAUCGGUC [Fam1B.1 aminoacylation ribozyme variant] | 1.05 | 0.721 | 0.83 | 0.96 | 0.858 | 1.06
CCACAGUUCAAGCAAUGGGUC [Fam1B.1 aminoacylation ribozyme variant] | 1.04 | 0.726 | 0.542 | 0.763 | 1.03 | 1.05
CCACAGUUCAAGCACUCGGUC [Fam1B.1 aminoacylation ribozyme variant] | 1.16 | 0.897 | 3.53 | 1.73 | 1.3 | 1.62
CCACAUCAAACAAUCGGUCUG [Fam1A.1 aminoacylation ribozyme variant] | 1.13 | 1.98 | 1.46 | 1.05 | 1.04 | 1.07
CCACAUUUCAAGCAAUCGGCC [Fam1B.1 aminoacylation ribozyme variant] | 3.63 | 4.96 | 3.98 | 3.19 | 4.62 | 3.56
CCACAUUUCAAGCGAUCGGUC [Fam1B.1 aminoacylation ribozyme variant] | 1.54 | 1.16 | 1.52 | 1.62 | 1.31 | 1.64
CCACAUUUCAAGCUAUCGGUC [Fam1B.1 aminoacylation ribozyme variant] | 1.4 | 1.03 | 1.03 | 1.16 | 1.1 | 1.33
CCACAUUUCAAGUAAUCGGUC [Fam1B.1 aminoacylation ribozyme variant] | 1.21 | 1.77 | 2.1 | 1.14 | 1.03 | 1.05
CCACAUUUCACGCAAUCGGUC [Fam1B.1 aminoacylation ribozyme variant] | 2.33 | 2.16 | 2.13 | 2.68 | 2.75 | 2.68
CCACAUUUCAGGCAAUCGGUC [Fam1B.1 aminoacylation ribozyme variant] | 2.2 | 1.59 | 1.92 | 2.2 | 1.58 | 1.93

Sequence | self-aminoacylation (biotinyl-Ile-oxazolone) | self-aminoacylation (biotinyl-Trp-oxazolone) | self-aminoacylation (biotinyl-Phe-oxazolone) | self-aminoacylation (biotinyl-Leu-oxazolone) | self-aminoacylation (biotinyl-Met-oxazolone) | self-aminoacylation (biotinyl-Val-oxazolone)
CCACAUUUCCAGCAAUCGGUC [Fam1B.1 aminoacylation ribozyme variant] | 2.12 | 1.23 | 1.26 | 2.15 | 1.64 | 2.04
CCACAUUUUAAGCAAUCGGUC [Fam1B.1 aminoacylation ribozyme variant] | 1.33 | 0.864 | 1.19 | 1.29 | 0.901 | 1.24
CCACCCCUCAAGCAAUCGGUC [Fam1B.1 aminoacylation ribozyme variant] | 1.18 | 1.14 | 1.64 | 1.28 | 1.05 | 1.27
CCACCCUGCAAGCAAUCGGUC [Fam1B.1 aminoacylation ribozyme variant] | 1.42 | 1.23 | 1.28 | 1.17 | 1.3 | 1.73
CCACCCUUCAAGAAAUCGGUC [Fam1B.1 aminoacylation ribozyme variant] | 1.24 | 6.09 | 5.63 | 1.26 | 1.16 | 1.19
CCACCCUUCAAGCAAGCGGUC [Fam1B.1 aminoacylation ribozyme variant] | 1.01 | 0.963 | 0.522 | 1.36 | 1.25 | 1.4
CCACCCUUCAAGCAAUCGGUA [Fam1B.1 aminoacylation ribozyme variant] | 1.4 | 2.06 | 0.981 | 1.59 | 1.38 | 1.6
CCACCCUUCGAGCAAUCGGUC [Fam1B.1 aminoacylation ribozyme variant] | 1.49 | 2.58 | 0.944 | 1.34 | 1.94 | 2.06
CCACCCUUGAAGCAAUCGGUC [Fam1B.1 aminoacylation ribozyme variant] | 1 | 1.34 | 0.764 | 1.12 | 0.972 | 1.74
CCACGCUUCAAGCAAUAGGUC [Fam1B.1 aminoacylation ribozyme variant] | 0.51 | 0.367 | 0.752 | 0.475 | 0.597 | 0.577
CCACGCUUCAAGCAAUCGGUC [Fam1B.1 aminoacylation ribozyme variant] | 1.2 | 39.9 | 76.9 | 2.11 | 1.37 | 1.54
CCACGCUUCAAGCAAUGGGUC [Fam1B.1 aminoacylation ribozyme variant] | 0.646 | 0.419 | 0.735 | 0.627 | 0.537 | 0.656
CCACGCUUCAAGCACUCGGUC [Fam1B.1 aminoacylation ribozyme variant] | 0.855 | 0.81 | 0.769 | 0.819 | 0.938 | 1.29
CCACGCUUCAUGCAAUCGGUC [Fam1B.1 aminoacylation ribozyme variant] | 0.812 | 0.507 | 0.756 | 0.749 | 0.782 | 1.06
CCACUACAAACAAUCGGUCUG [Fam1A.1 aminoacylation ribozyme variant] | 1.02 | 0.734 | 1.38 | 1.14 | 0.764 | 1.12
CCACUCCUCAAGCAAUCGGUC [Fam1B.1 aminoacylation ribozyme variant] | 1.07 | 1.26 | 1.26 | 0.845 | 0.986 | 1.23
CCACUCUUAAAGCAAUCGGUC [Fam1B.1 aminoacylation ribozyme variant] | 1.06 | 0.693 | 0.711 | 0.993 | 0.911 | 1.01
CCACUCUUCAAGCAAUCGGUG [Fam1B.1 aminoacylation ribozyme variant] | 3.43 | 5.05 | 23.1 | 7.12 | 4.76 | 3.46
CCACUCUUCAAGCAAUGGGUC [Fam1B.1 aminoacylation ribozyme variant] | 0.877 | 0.647 | 0.667 | 0.911 | 0.953 | 0.859
CCACUCUUCAAGCAAUUGGUC [Fam1B.1 aminoacylation ribozyme variant] | 0.831 | 0.809 | 0.992 | 0.729 | 0.63 | 0.95
CCACUCUUCAAGCACUCGGUC [Fam1B.1 aminoacylation ribozyme variant] | 1.02 | 0.816 | 0.56 | 1.04 | 1.15 | 0.928
CCACUCUUCAAGCCAUCGGUC [Fam1B.1 aminoacylation ribozyme variant] | 1.09 | 0.953 | 0.734 | 1.15 | 1.1 | 1.21
CCACUUCAAACAAUCGGUCCG [Fam1A.1 aminoacylation ribozyme variant] | 1.08 | 16.8 | 38.5 | 1.59 | 1.18 | 1.49
CCACUUCAAACAAUGGGUCUG [Fam1A.1 aminoacylation ribozyme variant] | 1.07 | 0.691 | 0.725 | 0.97 | 0.887 | 1.03
CCACUUCAACCAAUCGGUCUG [Fam1A.1 aminoacylation ribozyme variant] | 1.68 | 36.4 | 73.2 | 2.76 | 1.7 | 2.01
